In patent US20240279312A1 (Hoffmann-La Roche, published 2024):
Changes are numbered by the printed parent chain. In names and notes the source's numbering stands. Several values for one entry are separate records, joined by “and”; a condition that tells them apart may be missing. Equal entries are not always repeated. One block for each molecule: values may come before it.

What was measured:
[1] = target: recombinant von Willebrand Factor A1 domain (amino acids 1277-1453 of human vWF) (human) (UniProt P04275); assay: fluorescence anisotropy; particle-bound dimeric polypeptide titrated against 150 nM vWF A1-AlexaFluor 488
[2] = target: T1, human von Willebrand Factor of human blood plasma (human, UniProt P04275 764-2813); assay: sandwich ELISA: polypeptide captured on anti-CD42b, plasma added, detection with polyclonal rabbit anti-human vWF-HRP
T1 construct: mature; Native plasma protein in ELISA samples; also called vWF; plasma vWF
Excerpt: FIG. 4A is a cartoon of the enzyme-linked immunosorbent assay (ELISA) used to generate the data in FIG. 4B-4D. A solid support was coated with anti-glycoprotein Ibα antibody (anti-CD42b), which was used to immobilize recombinant polypeptide comprising a modified extracellular domain of platelet glycoprotein Ibα (CD42b; GPIbα; GP1b constructs). The solid support was then contacted with human blood plasma, von Willebrand Factor calibrators, or von Willebrand Factor controls. The solid support was then contacted with a polyclonal rabbit anti-human von Willebrand Factor antibody to which horseradish peroxidase (HRP) was conjugated. The composition was then contacted with a substrate capable of being converted into a product by HRP with a strong absorbance at 450 nm, and absorbance was measured.
Enzyme immunosorbent assays (ELISA) were used to determine that recombinant polypeptides comprising the G233T (SEQ ID NO: 21), D235V (SEQ ID NO: 30), and K237V (SEQ ID NO: 31) mutations are capable of detecting qualitative differences in vWF binding affinity. […] Briefly, the wells of a multi-well plate were coated with an anti-CD42b antibody, which specifically binds the modified extracellular domain of GPIbα of the recombinant polypeptides and was used to indirectly cross-link the recombinant polypeptides to the multi-well plate (i.e., the solid support). Various control samples, standards, and serial dilutions thereof were added to different wells of the multi-well plate including plasma samples associated with type 1, type 2B, and type 3 von Willebrand Disease, control samples of pooled human blood plasma, control samples of human blood plasma known not to have von Willebrand Disease, a 2× serial dilution of a reference standard of pooled human plasma from no dilution to 16-fold dilution, and goat blood serum as a negative control. […] Bound vWF was quantified by monitoring the conversion of a horseradish peroxidase substrate into product by absorption spectroscopy at 450 nm.

[3] = target: recombinant von Willebrand Factor A1 domain (amino acids 1277-1453 of human vWF) (human) (UniProt P04275); assay: SPR (Biacore); vWF A1 domain on CM5 chip, soluble polypeptide; Kd from on- and off-rates; SPR (Biacore), vWF A1 domain on CM5 chip

T1 sequence (P04275 764-2813 limits assumed): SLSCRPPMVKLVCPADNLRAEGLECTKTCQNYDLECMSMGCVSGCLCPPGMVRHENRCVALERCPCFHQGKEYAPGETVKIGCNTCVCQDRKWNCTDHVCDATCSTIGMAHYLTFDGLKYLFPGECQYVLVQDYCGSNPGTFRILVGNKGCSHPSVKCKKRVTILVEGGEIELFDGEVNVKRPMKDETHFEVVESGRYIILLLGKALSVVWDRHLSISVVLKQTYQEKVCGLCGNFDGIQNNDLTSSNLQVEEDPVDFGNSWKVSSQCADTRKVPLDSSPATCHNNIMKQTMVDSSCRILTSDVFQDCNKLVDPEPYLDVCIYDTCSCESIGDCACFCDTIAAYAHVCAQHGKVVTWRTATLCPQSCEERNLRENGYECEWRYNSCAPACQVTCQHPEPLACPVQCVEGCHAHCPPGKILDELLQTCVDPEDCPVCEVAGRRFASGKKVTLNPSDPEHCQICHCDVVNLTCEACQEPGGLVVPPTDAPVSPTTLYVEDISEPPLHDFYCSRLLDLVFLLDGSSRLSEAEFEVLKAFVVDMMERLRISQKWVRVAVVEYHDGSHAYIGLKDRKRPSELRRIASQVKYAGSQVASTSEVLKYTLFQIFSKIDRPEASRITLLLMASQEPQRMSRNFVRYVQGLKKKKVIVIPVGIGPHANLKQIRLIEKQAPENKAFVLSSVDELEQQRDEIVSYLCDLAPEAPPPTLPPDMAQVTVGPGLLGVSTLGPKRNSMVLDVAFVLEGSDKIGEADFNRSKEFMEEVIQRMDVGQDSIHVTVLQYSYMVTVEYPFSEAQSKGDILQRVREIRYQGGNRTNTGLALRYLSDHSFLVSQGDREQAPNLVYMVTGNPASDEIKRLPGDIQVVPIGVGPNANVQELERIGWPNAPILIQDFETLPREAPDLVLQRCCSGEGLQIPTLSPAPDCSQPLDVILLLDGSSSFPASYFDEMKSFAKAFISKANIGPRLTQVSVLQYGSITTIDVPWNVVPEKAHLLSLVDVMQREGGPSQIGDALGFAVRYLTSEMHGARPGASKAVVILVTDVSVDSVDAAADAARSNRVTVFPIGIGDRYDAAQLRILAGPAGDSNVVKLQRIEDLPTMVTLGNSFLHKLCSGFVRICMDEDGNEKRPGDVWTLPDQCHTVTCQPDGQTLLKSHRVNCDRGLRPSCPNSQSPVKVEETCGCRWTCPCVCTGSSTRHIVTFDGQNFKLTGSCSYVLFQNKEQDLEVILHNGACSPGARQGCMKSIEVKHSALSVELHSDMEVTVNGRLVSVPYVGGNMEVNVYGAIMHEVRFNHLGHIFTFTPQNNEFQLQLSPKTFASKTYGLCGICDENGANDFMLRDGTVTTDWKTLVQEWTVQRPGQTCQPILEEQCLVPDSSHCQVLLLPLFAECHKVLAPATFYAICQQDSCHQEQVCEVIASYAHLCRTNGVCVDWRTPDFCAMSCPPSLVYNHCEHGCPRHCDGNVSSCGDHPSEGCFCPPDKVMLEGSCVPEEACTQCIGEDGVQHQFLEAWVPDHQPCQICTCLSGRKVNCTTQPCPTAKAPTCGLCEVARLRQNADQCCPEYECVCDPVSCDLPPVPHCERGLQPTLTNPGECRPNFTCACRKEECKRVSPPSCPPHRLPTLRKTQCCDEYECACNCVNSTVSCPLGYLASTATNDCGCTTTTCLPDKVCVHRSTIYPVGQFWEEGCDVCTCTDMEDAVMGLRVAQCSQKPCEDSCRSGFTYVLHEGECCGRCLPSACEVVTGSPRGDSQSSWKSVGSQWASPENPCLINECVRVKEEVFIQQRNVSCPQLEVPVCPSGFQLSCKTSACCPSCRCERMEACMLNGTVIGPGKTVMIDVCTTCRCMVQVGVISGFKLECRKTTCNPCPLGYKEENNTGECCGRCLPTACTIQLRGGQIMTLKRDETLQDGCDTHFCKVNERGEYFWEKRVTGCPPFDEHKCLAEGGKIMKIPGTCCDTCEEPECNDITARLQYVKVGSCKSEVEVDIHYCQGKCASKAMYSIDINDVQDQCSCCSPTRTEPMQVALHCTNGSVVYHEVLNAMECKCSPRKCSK
Sequence of recombinant von Willebrand Factor A1 domain (amino acids 1277-1453 of human vWF) (human) (P04275 1277-1453 limits assumed, form in doubt): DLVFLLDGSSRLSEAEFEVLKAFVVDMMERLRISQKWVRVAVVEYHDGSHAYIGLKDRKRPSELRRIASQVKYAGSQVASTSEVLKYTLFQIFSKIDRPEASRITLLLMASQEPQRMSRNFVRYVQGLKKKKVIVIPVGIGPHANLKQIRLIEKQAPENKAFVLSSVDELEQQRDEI

B1: dimeric polypeptide of SEQ ID NO: 21: GPIbα extracellular domain with C65S and G233T, murine IgG1 Fc dimerization domain, 8-His tag (Fc fusion)
chain: HPICEVSKVASHLEVNCDKRNLTALPPDLPKDTTILHLSENLLYTFSLATLMPYTRLTQLNLDRSELTKLQVDGTLPVLGTLDLSHNQLQSLPLLGQTLPALTVLDVSFNRLTSLPLGALRGLGELQELYLKGNELKTLPPGLLTPTPKLEKLSLANNNLTELPAGLLNGLENLDTLLLQENSLYTIPKGFFGSHLLPFAFLHGNPWLCNCEILYFRRWLQDNAENVYVWKQTVDVKAMTSNVASVQCDNSDKFPVYKYPGKGCPTLGDEGDTDLYDYYPEEDTEGDKVRVPRDCGCKPCICTVPEVSSVFIFPPKPKDVLTITLTPKVTCVVVDISKDDPEVQFSWFVDDVEVHTAQTQPREEQFNSTFRSVSELPIMHQDWLNGKEFKCRVNSAAFPAPIEKTISKTKGRPKAPQVYTIPPPKEQMAKDKVSLTCMITDFFPEDITVEWQWNGQPAENYKNTQPIMDTDGSYFVYSKLNVQKSNWEAGNTFTCSVLHEGLHNHHTEKSLSHSPGIGHHHHHHHH
notes: On particles in fluorescence anisotropy, soluble in SPR, captured by anti-CD42b in ELISA; also called G233T mutant; G233T recombinant polypeptide
binding result [2]: binds
Kd [1]: 67 nM and < 500 nM
Kd [3]: 58 nM

B2: dimeric polypeptide of SEQ ID NO: 30: GPIbα extracellular domain with C65S and D235V, murine Fc dimerization domain (Fc fusion)
chain: B1 chain with T233G, D235V
notes: also called D235V mutant
binding result [2]: binds
Kd [1]: < 500 nM and 250 nM

The remaining lines, values ahead:

Kd [1]: 1250 nM
Molecule: dimeric polypeptide of SEQ ID NO: 37 (WT): GPIbα extracellular domain without gain- or loss-of-function mutation, murine Fc dimerization domain (Fc fusion)

binding result [2]: binds
Kd [1]: < 500 nM and 300 nM
B3: dimeric polypeptide of SEQ ID NO: 31: GPIbα extracellular domain with C65S and K237V, murine Fc dimerization domain (Fc fusion)
chain: B1 chain with T233G, K237V
notes: also called K237V mutant
